Results taken from publication PMC8249405 (2021).

B1: Xcc XopR-FL (aa 1-411) (natural protein)
chain: MRLSQLFNSRHRVAPEPHGANPNKTTPLIPGASPQHPLSQAPKSTTSQGASKSHRGMLASARKSLASLRKQLPLTCMGSSPTLETVESPPAHTAAVTPGRTQQQHGTQARVDQRWQPPVPNATDHERVQRPQPQPQQTPPTRQSMSVPPKPARAQQLHGPQRPVDPRMQPPIPERMRRDEGQPPQHDKPASPPVPITPAQSSLPSPRPQPGRQPSLRRLDLQLEEITRQCSDIQKQLFMEDREATPQEQHLLKTRAALIAWRNEVRDSQLEALLVALAPMEDIRAPRTTSSGLAMVQMDAMQHNRREVLKARRKSVDRAALARNYARAQRRLESLKQGDAPKEQIRRLQRMMQGYQNMLALEQIVRSTDDQLERLGAPRLMSGIPTTAEQRRQSFEKERDAHQEAIDNGYY

Key:
[1] = biological target: the molecule itself; test: SPR; bivalent model, koff1
[2] = biological target: B1; test: SPR; bivalent model, koff1

Row | Binder | koff [1] [s⁻¹] | koff [2] [s⁻¹]
1 | B1 | 0.27 | 
2 | Arabidopsis thaliana Formin 1 AtFH1-FH1C (domain or fragment) RQGLQSQLLSSPSNSHGGQGFLKQLDALRSRSPSSSSSSVCSSPEKASHKSPVTSPKLSSRNSQSLSSSPDRDFSHSLDVSPRISNISPQILQSRVPPPPPPPPPLPLWGRRSQVTTKADTISRPPSLTPPSHPFVIPSENLPVTSSPMETPETVCASEAAEETPKPKLKALHWDKVRASSDREMVWDHLRSSSFKLDEEMIETLFVAKSLNNKPNQSQTTPRCVLPSPNQENRVLDPKKAQNIAILLRALNVTIEEVCEALLEGNADTLGTELLESLLKMAPTKEEERKLKAYNDDSPVKLGHAEKFLKAMLDIPFAFKRVDAMLYVANFESEVEYLKKSFETLEAACEELRNSRMFLKLLEAVLKTGNRMNVGTNRGDAHAFKLDTLLKLVDVKGADGKTTLLHFVVQEIIRAEGTRLSGNNTQTDDIKCRKLGLQVVSSLCSELSNVKKAAAMDSEVLSSYVSKLSQGIAKINEAIQVQSTITEESNSQRFSESMKTFLKRAEEEIIRVQAQESVALSLVKEITEYFHGNSAKEEAHPFRIFLVVRDFLGVVDRVCKEVGMINERTMVSSAHKFPVPVNPMMPQPLPGLVGRRQSSSSSSSSSTSSSDEDEHNSISLVS |  | 0.0152
